T1: Human IL-13-Mouse IL-13 Helix C (human IL-13 with mouse Helix C, UniProt P35225 35-146, limits assumed)
T1 construct: Expressed and secreted chimeric protein; also called Mo HelixC
T1 chain: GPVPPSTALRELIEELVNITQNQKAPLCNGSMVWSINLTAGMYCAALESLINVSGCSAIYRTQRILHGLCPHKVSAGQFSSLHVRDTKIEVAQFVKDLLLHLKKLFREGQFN

T2: Human IL-13-Mouse IL-13 Helix B (human IL-13 with mouse Helix B, UniProt P35225 35-146, limits assumed)
T2 construct: Expressed and secreted chimeric protein; also called Mo HelixB
T2 chain: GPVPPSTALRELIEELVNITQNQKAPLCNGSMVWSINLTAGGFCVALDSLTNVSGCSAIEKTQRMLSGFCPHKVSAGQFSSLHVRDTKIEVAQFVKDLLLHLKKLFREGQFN

T3: mouse IL-13 (mouse, UniProt P20109 22-131, limits assumed)
T3 construct: also called murine IL-13
T3 sequence (looked up): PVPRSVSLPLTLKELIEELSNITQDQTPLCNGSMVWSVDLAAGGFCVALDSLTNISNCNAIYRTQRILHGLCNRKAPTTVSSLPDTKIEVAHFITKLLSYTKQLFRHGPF


Assays:
[1] = molecular target: T1, Human IL-13-Mouse IL-13 Helix C; test: ELISA on secreted IL-13 chimeric proteins
[2] = molecular target: T4, native human IL-13 (human, UniProt P35225 35-146, limits assumed); test: KinExA, equilibrium in solution
T4 construct: also called hIL-13
T4 sequence (P35225 35-146 limits assumed): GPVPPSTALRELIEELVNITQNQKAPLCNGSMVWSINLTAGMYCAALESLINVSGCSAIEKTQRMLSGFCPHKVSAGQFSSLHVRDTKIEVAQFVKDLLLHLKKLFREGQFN

[3] = molecular target: T2, Human IL-13-Mouse IL-13 Helix B; test: ELISA on secreted IL-13 chimeric proteins; '*' denotes that the binding was weak in the sandwich ELISA
[4] = molecular target: T3, mouse IL-13; test: epitope mapping with mouse IL-13 chimeric molecules (ELISA)
[5] = molecular target: human IL-13 (source not stated for the assay) (human, UniProt P35225 35-146, limits assumed); test: cell-based or functional assay
human IL-13 (source not stated for the assay), sequence (P35225 35-146 limits assumed): as above

[6] = molecular target: T5, Recombinant Human IL-13 (R & D 213-IL-005) (human, UniProt P35225 35-146); test: SPR (Biacore 2000), mAb captured on goat anti-human surface, IL-13 (R&D) injected, 1:1 model
T5 construct: also called IL-13 antigen (R&D Systems)
T5 sequence (P35225 35-146 limits assumed): as above

[7] = molecular target: T2, Human IL-13-Mouse IL-13 Helix B; test: ELISA on secreted IL-13 chimeric proteins

Binder	binding result [1]	Kd [2]	binding result [3]	binding result [4]	IC50, IL-13 induced eotaxin release, Average [5]	IC50, IL-13 induced eotaxin release, n = 1 [5]	IC50, IL-13 induced eotaxin release, n = 2 [5]	IC50, IL-13 induced eotaxin release, n = 3 [5]	Kd [6]	koff [6]	kon [6]	binding result [7]
mAb 713 (antibody, V domains shown) VH: EVQLLESGGGLVQPGGSLRLSCAASGFTFSSYAMSWVRQAPGKGLEWVSAFSGSGGSTYYADSVKGRFTISRDNSKNTLYLQMNSLRAEDTAVYYCVQDGLGPYFYNYGMDVWGQGTTVTVSS VL: SYELTQPPSVSVSPGQTASITCSGDKLGDKYTCWFQQKPGQSPVLVIYHDSKRPSGIPERFSGSNSGDTATLTISGTQAMDEADYYCQAWDSSTYVFGTGTKVTVLG	no binding	3.6 pM	binds	no binding	21 pM	21 pM	21 pM	19 pM	0.012 nM	3.4e-05 s⁻¹	2.9e+06 M⁻¹ s⁻¹	
mAb 157 (antibody, V domains shown) VH: EVQLVESGGGLVKPGGSLRLSCAASGFTFSSYSMNWVRQAPGKGLEWVSYISTSYNYIYYADSVKGRFTISRDNAKNSLYLQMNSLRAEDTAVYYCARDQVGATLDAFDIWGQGTMVTVSS VL: DIQMTQSPSSLSASVGDRVTITCRASQGIGDDLGWYQQKPGKAPKRLIYAASSLQSGVPSRFSGSGSGTEFTLTISSLQPEDFATYYCLQHNSYPFTFGPGTRVDIK					258 pM	260 pM	207 pM	306 pM				
mAb 356 (antibody, V domains shown) VH: EVQLVESGGGLVKPGGSLRLSCAASGFTFSDYNMHWVRQAPGKGLEWVSSISYSSTYIYYADSVRGRFTISRDNAKNSLYLQMNSLRAEDTAVFYCAREDYYYYGLDVWGQGTTVTVSS VL: DIQMTQSPSSLSASVGDRVTITCRASQDIRNDLGWYQQKPGKAPKRLIYDASSLQSGVPSRFSGSGSGTEFTLTISSLQPEDFAIYYCLQHNSYPWTFGQGTKVEIK					1000 pM	1090 pM	913 pM					
mAb 176 (antibody, V domains shown) VH: EVQLVESGGGLVKPGGSLRLSCAASGFTFSSYSMNWVRQAPGKGLEWVSYISTSNSYIYYADSVKGRFTISRDNAKNSLYLQMNSLRAEDTAVYYCARDQVGATLDAFDIWGQGTMVTVSS VL: DIQMTQSPSSLSASVGDRVTFTCRASQDITDDLGWYQQKPGKAPKRLIYAASSLQSGVPPRFSGSGSGTEFTLTISSLQPEDFATYYCLQHNSYPFTFGPGTKVDIR					233 pM	233 pM						
mAb 183 (antibody, V domains shown) VH: EVQLVESGGGLVKPGGSLRLSCAASGFTFSSYSMNWVRQAPGKGLEWVSYISSSYNYIYYGDSVKGRFTISRDNAKNSLYLQMNSLRAEDTAVYYCARDQVGATLDAFDIWGQGTMVTVSS VL: DIQMTQSPSSLSASVGDRVTITCRASQGIGDDLGWYQQKPGKAPKRLIYAASSLQSGVPSRFSGSGSGTEFTLTISSLQPEDFATYYCLQHNSYPFTFGPGTKVDIK					1440 pM	1040 pM	1840 pM					
mAb 243 (antibody, V domains shown) VH: EVQLVESGGGLVKPGGSLRLSCAASGFTFSSYSMNWVRQAPGKGLEWVSYISTSNSYIYYADSVKGRFTISRDNAKNSLYLQMNSLRAEDTAVYYCARDQVGATLDAFDIWGQGTMVTVSS VL: DIQMTQSPSSLSASVGDRVTFTCRASQDITDDLGWYQQKPGKAPKRLIYAASSLQSGVPSRFSGSGSGTEFTLTISSLQPEDFATYYCLQHNSYPFTFGPGTKVDIR					253 pM	253 pM						
mAb 264 (antibody, V domains shown) VH: EVQLVESGGGLVKPGGSLRLSCAASGFTFSSYSMNWVRQAPGKGLEWVSYISTSNSYIYYADSVKGRFTISRDNAKNSLYLQMNSLRAEDTAVYYCARDQVGATLDAFDIWGQGTMVTVSS VL: DIQMTQSPSSLSASVGDRVTFTCRASQDITDDLGWYQQKPGKAPKRLIYAASSLQSGVPSRFSGSGSGTEFTLTISSLQPEDFATYYCLQHNSYPFTFGPGTKVDIR					297 pM	293 pM	313 pM	284 pM				
mAb 11.18 (antibody, V domains shown) VH: QVQLVESGGGVVQPGRSLRLSCVASGFTFSSYDMHWVRQAPGKGLEWVAVIWYDGSNKYYADSVQGRFTISRDNSKNTLYLQMNSLRAEDTAVYYCTSEDSSGWYDGWFDPWGQGTLVTVSS VL: DIQMTQSPSSLSASVGDRVTITCRASQGISNYLAWYQQKPGKVPKVLIYAASTLQSGVPSRFSGSGSGTDFTLTISSLQPEDVATYYCQKYNSAPFTFGPGTKVDIK					245 pM	213 pM	304 pM	217 pM				
mAb 602 (antibody, V domains shown) VH: EVQLVESGGGLVKPGGSLRLSCAASGFTFSNAWMSWVRQAPGKGLEWVGRIRSKIDGGTINYAAPVKGRFTISRDDSKNTLYLQMNSLKTEDTAVYYCATDQVGAYYGDYYGMDVWGQGTTVTVSS VL: SYELTQPPSVSVSPGQTARITCSGDALPEKYAYWYQQKSGQAPVLVIYEDTKRPSGIPERFSGSSSGTMATLTISGAQVEDEADYYCYSTDSSGNHGVFGGGTKLTVLG	binds			no binding	66 pM	80 pM	53 pM		0.172 nM	0.00051 s⁻¹	3e+06 M⁻¹ s⁻¹	binds
mAb 643 (antibody, V domains shown) VH: EVQLVESGGGLVKPGGSLRLSCAASGFTFSNAWMSWVRQAPGKGLEWVGRIRSEIDGGTTNYAAPVKGRFTISRDDSKNTLYLQMNSLRTEDTAVYYCATDQVGAYYGDYYGMDVWGQGTTVTVSS VL: SYELTQPPSVSVSPGQTARITCSGDALPEKYAYWYQQKSGQAPVLVIYEDSKRPSGIPERFSGSSSGTMATLTISGAQVEDEADYYCHSTDSSGNHGVFGGGTKLTVLG	binds	13 pM		no binding	35 pM	44 pM	28 pM	33 pM	0.066 nM	0.00029 s⁻¹	4.4e+06 M⁻¹ s⁻¹	binds

From US20100047253A1 (Amgen, published 2010)
